B1: chimpanzee TRIM5α (Pan troglodytes) (natural protein, chimpanzee (Pan troglodytes), UniProt Q5D7J1 1-493, looked up)
chain: MASGILVNVKEEVTCPICLELLTQPLSLDCGHSFCQACLTANHKKSMLDKGESSCPVCRISYQPENIRPNRHVANIVEKLREVKLSPEGQKVDHCAHHGEKLLLFCQEDGKVICWLCERSQEHRGHHTFLTEEVAREYQVKLQAALEMLRQKQQEAEELEADIREEKASWKTQIQYDKTNVLADFEQLRDILDWEESNELQNLEKEEEDILKSLTKSETEMVQQTQSVRELISDLERRLQGSVMELLQGVDGVIKRMENVTLKKPETFPKNQRRVFRAPDLKGMLEVFRELTDVRRYWVDVTVAPNNISCAVISEDMRQVSSPKPQIIYGARGTRYQTFMNFNYCTGILGSQSITSGKHYWEVDVSKKSAWILGVCAGFQPDAMCNIEKNENYQPKYGYWVIGLEEGVKCSAFQDGSFHTPSAPFIVPLSVIICPDRVGVFLDYEACTVSFFNITNHGSLIYKFSHCSFSQPVFPYLNPRKCGVPMTLCSPSS
notes: also called TRIM5αcpz
B2: owl monkey TRIMCyp (Aotus trivirgatus) (natural protein)
chain: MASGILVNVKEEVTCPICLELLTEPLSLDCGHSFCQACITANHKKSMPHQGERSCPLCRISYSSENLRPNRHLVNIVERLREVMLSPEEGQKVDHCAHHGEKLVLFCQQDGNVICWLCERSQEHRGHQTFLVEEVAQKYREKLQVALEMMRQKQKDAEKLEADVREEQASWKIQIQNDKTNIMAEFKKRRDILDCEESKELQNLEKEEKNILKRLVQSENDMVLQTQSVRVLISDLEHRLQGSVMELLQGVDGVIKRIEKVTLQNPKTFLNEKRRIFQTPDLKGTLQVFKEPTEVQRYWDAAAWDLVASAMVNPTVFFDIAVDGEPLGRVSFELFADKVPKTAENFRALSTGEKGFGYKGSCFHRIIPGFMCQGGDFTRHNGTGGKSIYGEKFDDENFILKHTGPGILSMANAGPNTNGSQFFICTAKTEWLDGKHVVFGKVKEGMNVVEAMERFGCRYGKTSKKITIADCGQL
B3: African green monkey TRIM5α (Chlorocebus pygerythrus) (natural protein, UniProt Q5C8U4 1-515, looked up)
chain: MASGILVNVKEEVTCPICLELLTEPLSLPCGHSLCQACITANHKESMLYKEEERSCPVCRISYQPENIQPNRHVANIVEKLREVKLSPEEGQKVDHCARHGEKLLLFCQEDSKVICWLCERSQEHRGHHTFLMEEVAQEYHVKLQTALEMLRQKQQEAEKLEADIREEKASWKIQIDYDKTNVSADFEQLREILDWEESNELQNLEKEEEDILKSLTKSETEMVQQTQYMRELISDLEHRLQGSMMELLQGVDGIIKRVENMTLKKPKTFHKNQRRVFRAPDLKGMLDMFRELTDVRRYWVDVTLAPNNISHAVIAEDKRQVSYRNPQIMYQSPGSLFGSLTNFSYCTGVPGSQSITSGKLTNFNYCTGVLGSQSITSGKHYWEVDVSKKSAWILGVCAGFQPDATYNIEQNENYQPKYGYWVIGLQEGDKYSVFQDGSSHTPFAPFIVPLSVIICPDRVGVFVDYEACTVSFFNITNHGFLIYKFSQCSFSKPVFPYLNPRKCTVPMTLCSPSS
notes: also called TRIM5α_(AGMpyg); TRIM5_(AGMpyg)
B4: proteolysis-resistant owl monkey TRIMCyp_(K283D,Q287D) (natural protein)
chain: not shown

Target: the molecule itself
Assay: SEC; final gel filtration step, HiLoad 16/600 Superdex 200 in 20 mM CHES, 100 nM ZnCl2, 1 mM TCEP, pH 10.0, 4°C; oligomer judged from retention time

Stoichiometry N, 2:
B1
B2
B3
B4

Source: paper PMC4936896, “Primate TRIM5 proteins form hexagonal nets on HIV-1 capsids” (eLife, 2016)
